The target of test [1] is T1, HIR extracellular domain (ECD) (human, UniProt P06213 28-956, limits assumed).
T1 construct: extracellular domain; also called HIR ECD; IR ECD
As to the kind of experiment: ELISA, HIR ECD plated on Nunc-Maxisorb wells, biotinylated goat anti-human IgG detection; ED50 by inspection. On the technique in general: In an ELISA, binding on a coated surface is turned into a signal by an enzyme label.

Test [2] addresses T1, HIR extracellular domain (ECD). As to the kind of experiment: ELISA on plated HIR ECD; ED50 normalised with a MW of 375 kDa.
Test [3] has the same target. As to the kind of experiment: ELISA on HIR ECD; ED50 normalised with a MW of 150 kDa.
Test [4] has the same target. As to the kind of experiment: ELISA on lectin affinity purified HIR ECD; printed as ED50, non-linear regression.
The target is the same in test [5]. As to the kind of experiment: ELISA on plated HIR ECD; ED50 normalised with a MW of 150 kDa.
Test [6] has the same target. As to the kind of experiment: ELISA on HIR ECD (FIG. 17); the same 166 ng/mL ED50 normalised with a MW of 375 kDa.
For test [7] the target is unchanged. As to the kind of experiment: ELISA on HIR ECD; ED50 normalised with a MW of 350 kDa.

B1: HIRMAb-L-NAGLU fusion protein (23 amino acid L linker) (antibody, human IgG1, human IgG3, kappa)
heavy: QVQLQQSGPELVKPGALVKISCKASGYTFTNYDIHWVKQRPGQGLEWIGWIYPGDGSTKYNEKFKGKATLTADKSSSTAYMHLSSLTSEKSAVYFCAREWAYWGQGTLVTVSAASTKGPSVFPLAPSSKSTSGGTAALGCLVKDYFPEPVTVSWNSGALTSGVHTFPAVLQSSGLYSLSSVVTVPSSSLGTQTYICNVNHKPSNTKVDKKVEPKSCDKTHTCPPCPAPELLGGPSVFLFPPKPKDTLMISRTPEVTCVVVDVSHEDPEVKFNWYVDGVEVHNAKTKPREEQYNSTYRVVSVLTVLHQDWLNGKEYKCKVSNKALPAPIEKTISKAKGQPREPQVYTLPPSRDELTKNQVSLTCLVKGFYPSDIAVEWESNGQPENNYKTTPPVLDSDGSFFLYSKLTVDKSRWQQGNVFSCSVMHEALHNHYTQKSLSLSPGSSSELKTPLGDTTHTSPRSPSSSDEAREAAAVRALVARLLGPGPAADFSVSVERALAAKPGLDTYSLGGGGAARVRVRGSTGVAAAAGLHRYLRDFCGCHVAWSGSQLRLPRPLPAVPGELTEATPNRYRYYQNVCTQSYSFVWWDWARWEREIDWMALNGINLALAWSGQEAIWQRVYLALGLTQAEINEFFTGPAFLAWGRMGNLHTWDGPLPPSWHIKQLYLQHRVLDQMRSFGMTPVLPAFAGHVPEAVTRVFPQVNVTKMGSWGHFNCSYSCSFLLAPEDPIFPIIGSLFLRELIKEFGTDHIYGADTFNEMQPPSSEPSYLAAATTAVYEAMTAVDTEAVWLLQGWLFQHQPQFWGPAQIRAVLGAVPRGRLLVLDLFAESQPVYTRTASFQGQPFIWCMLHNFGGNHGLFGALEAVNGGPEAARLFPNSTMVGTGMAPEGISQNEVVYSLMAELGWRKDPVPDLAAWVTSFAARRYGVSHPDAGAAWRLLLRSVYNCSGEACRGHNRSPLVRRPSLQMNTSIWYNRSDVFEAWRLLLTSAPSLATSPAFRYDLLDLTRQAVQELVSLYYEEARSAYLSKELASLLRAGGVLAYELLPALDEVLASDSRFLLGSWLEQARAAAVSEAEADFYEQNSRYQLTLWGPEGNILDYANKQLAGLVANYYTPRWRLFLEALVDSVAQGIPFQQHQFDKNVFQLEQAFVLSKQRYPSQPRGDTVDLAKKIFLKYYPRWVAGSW
light: DIQMTQSPSSLSASLGERVSLTCRASQDIGGNLYWLQQGPDGTIKRLIYATSSLDSGVPKRFSGSRSGSDYSLTISSLESEDFVDYYCLQYSSSPWTFGGGTKLEIKRTVAAPSVFIFPPSDEQLKSGTASVVCLLNNFYPREAKVQWKVDNALQSGNSQESVTEQDSKDSTYSLSSTLTLSKADYEKHKVYACEVTHQGLSSPVTKSFNRGEC
notes: COS-derived (transient expression), purified on protein A. Hetero-tetramer; also called HIR Ab-L-NAGLU fusion protein; IgG-L-NAGLU
The EC50 is the concentration needed to bring the measured effect to its halfway point. High values mean lower potency in that assay, low ones higher potency in that assay. For the molecule B1, the EC50 in test [1] came out at 0.35 µg/mL; in test [2] it was 0.93 nM.

B2: chimeric HIRMAb (chimeric monoclonal antibody against the human insulin receptor) (antibody, human IgG1, kappa)
heavy: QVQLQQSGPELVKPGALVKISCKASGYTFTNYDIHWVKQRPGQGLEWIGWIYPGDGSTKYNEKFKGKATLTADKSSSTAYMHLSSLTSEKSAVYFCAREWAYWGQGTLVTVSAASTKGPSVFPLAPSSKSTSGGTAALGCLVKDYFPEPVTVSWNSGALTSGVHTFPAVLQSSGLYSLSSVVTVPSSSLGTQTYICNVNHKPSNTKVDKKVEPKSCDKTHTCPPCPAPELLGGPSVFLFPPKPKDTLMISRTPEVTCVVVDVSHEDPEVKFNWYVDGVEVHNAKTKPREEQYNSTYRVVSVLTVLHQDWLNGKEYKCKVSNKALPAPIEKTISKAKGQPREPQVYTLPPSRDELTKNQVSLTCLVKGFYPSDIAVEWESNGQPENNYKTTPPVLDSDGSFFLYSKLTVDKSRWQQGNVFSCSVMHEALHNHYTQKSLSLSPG
light: DIQMTQSPSSLSASLGERVSLTCRASQDIGGNLYWLQQGPDGTIKRLIYATSSLDSGVPKRFSGSRSGSDYSLTISSLESEDFVDYYCLQYSSSPWTFGGGTKLEIKRTVAAPSVFIFPPSDEQLKSGTASVVCLLNNFYPREAKVQWKVDNALQSGNSQESVTEQDSKDSTYSLSSTLTLSKADYEKHKVYACEVTHQGLSSPVTKSFNRGEC
notes: also called HIR Ab; HIRMAb alone
Take B2: the 50% effective concentration (EC50) was 0.29 nM in test [3], 0.043 µg/mL in test [4], 0.065 µg/mL in test [1] and 0.43 nM in test [5].

B3: HIRMAb-LL-NAGLU fusion protein (31 amino acid LL linker) (antibody, human IgG1, human IgG3, kappa)
heavy: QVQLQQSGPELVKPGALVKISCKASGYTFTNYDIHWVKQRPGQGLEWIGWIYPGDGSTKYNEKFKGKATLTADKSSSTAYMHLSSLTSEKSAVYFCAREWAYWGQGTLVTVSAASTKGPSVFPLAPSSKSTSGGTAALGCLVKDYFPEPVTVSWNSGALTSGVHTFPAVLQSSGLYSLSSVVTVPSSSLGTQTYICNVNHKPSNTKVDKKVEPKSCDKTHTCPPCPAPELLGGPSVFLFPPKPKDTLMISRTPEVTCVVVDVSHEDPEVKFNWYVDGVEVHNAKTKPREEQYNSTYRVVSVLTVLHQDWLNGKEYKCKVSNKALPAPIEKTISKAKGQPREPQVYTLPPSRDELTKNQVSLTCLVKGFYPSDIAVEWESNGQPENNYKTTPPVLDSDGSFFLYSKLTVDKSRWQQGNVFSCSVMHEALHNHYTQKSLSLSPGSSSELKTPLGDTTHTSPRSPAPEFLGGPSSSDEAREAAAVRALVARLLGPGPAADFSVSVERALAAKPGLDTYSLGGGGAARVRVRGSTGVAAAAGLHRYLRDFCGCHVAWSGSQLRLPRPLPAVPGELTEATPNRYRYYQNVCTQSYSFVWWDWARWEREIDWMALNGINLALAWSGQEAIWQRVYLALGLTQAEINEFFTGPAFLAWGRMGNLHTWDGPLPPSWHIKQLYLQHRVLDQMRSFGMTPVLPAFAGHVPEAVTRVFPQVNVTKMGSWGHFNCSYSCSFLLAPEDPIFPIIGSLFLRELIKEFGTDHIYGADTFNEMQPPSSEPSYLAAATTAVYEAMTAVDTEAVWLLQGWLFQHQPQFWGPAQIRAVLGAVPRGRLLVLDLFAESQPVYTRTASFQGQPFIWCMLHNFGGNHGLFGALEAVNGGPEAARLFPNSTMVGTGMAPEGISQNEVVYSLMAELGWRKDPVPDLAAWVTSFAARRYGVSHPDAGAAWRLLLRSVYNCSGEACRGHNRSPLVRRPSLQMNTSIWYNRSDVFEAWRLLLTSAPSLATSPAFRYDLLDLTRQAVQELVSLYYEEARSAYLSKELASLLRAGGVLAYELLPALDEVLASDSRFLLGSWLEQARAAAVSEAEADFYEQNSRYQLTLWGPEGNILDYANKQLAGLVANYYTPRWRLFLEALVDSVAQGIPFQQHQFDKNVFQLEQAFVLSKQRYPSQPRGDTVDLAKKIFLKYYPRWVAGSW
light: DIQMTQSPSSLSASLGERVSLTCRASQDIGGNLYWLQQGPDGTIKRLIYATSSLDSGVPKRFSGSRSGSDYSLTISSLESEDFVDYYCLQYSSSPWTFGGGTKLEIKRTVAAPSVFIFPPSDEQLKSGTASVVCLLNNFYPREAKVQWKVDNALQSGNSQESVTEQDSKDSTYSLSSTLTLSKADYEKHKVYACEVTHQGLSSPVTKSFNRGEC
notes: also called HIR Ab HC-LL-NAGLU; printed in places as HIRMAb-NAGLU or HIR Ab-NAGLU fusion protein
In the case of B3, the results for the 50% effective concentration (EC50) in test [4], in test [6] and in test [7] were 0.166 µg/mL, 0.44 nM and 0.47 nM, respectively.

The values above are taken from patent US20240409650A1 (ARMAGEN, published 2024).
